From publication PMC5724578 (Biochemistry, 2017)

Test: Stability of EVH1 mutant in aqueous solution
Assay type: physicochemical

B1: EVH1 Y39E: phosphomimetic Y39E mutant of human VASP EVH1 domain (protein)
chain: GPGGRMSSETVICSSRATVMLYDDGNKRWLPAGTGPQAFSRVQIEHNPTANSFRVVGRKMQPDQQVVINCAIVRGVKYNQATPNFHQWRDARQVWGLNFGSKEDAAQFAAGMASALEALEG
modifications: left off: His tag, end not stated, cleaved
  stability in aqueous solution: stable in aqueous solution
